In PMC4840434, “The interactome of Streptococcus pneumoniae and its bacteriophages show highly specific patterns of interactions among bacteria and their phages” (Scientific Reports, 2016):

Legend:
Assay in all cases: pull-down; LuMPIS: N-terminally MBP-tagged bait pulled down on amylose beads, N-terminally eGFP-luciferase-tagged prey detected by luciferase activity; both expressed in HEK cells, raw protein extracts; quadruplicates; LIR against MBP without ORF
[1] = molecular target: Dp-1 orf31, Hypothetical protein (LuMPIS construct) (phage Dp-1 of S. pneumoniae)
[2] = molecular target: Dp-1 orf16, NAD-dependent DNA ligase (LuMPIS construct) (phage Dp-1 of S. pneumoniae)
[3] = molecular target: Dp-1 orf39, Zinc finger protein (LuMPIS construct) (phage Dp-1 of S. pneumoniae)
[4] = molecular target: Dp-1 orf9, No similarity (LuMPIS construct) (phage Dp-1 of S. pneumoniae)
[5] = molecular target: Dp-1 orf32, Hypothetical protein (LuMPIS construct) (phage Dp-1 of S. pneumoniae)
[6] = molecular target: Cp-1 orf16, Hypothetical protein (LuMPIS construct) (phage Cp-1 of S. pneumoniae)
[7] = molecular target: Dp-1 orf47, Hypothetical protein (LuMPIS construct) (phage Dp-1 of S. pneumoniae)
[8] = molecular target: Dp-1 orf58, Holin (LuMPIS construct) (phage Dp-1 of S. pneumoniae)
[9] = molecular target: Dp-1 orf72, Membrane protein (LuMPIS construct) (phage Dp-1 of S. pneumoniae)
[10] = molecular target: Dp-1 orf60, Hypothetical protein (LuMPIS construct) (phage Dp-1 of S. pneumoniae)
[11] = molecular target: Dp-1 orf51, Hypothetical protein (LuMPIS construct) (phage Dp-1 of S. pneumoniae)
[12] = molecular target: T1, Cp-1 Cpl1, Lysozyme (LuMPIS construct) (phage Cp-1 of S. pneumoniae, UniProt P15057 1-339); details: partners not purified
T1 construct: Cpl1 lysozyme of phage Cp-1; ORF in a Gateway LuMPIS vector; source: HEK cells, raw protein extract
T1 sequence: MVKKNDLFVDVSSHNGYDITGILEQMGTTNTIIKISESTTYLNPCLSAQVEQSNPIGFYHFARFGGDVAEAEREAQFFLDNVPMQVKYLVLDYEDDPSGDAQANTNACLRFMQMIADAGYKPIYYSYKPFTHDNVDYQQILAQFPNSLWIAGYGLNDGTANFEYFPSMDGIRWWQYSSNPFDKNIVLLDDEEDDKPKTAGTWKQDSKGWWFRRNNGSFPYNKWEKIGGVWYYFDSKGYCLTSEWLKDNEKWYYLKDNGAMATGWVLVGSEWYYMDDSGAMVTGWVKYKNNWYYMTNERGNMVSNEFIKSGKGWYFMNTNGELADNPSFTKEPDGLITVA

[13] = molecular target: Dp-1 orf33, Hypothetical protein (LuMPIS construct) (phage Dp-1 of S. pneumoniae)

## SP_0259, Holliday junction DNA helicase RuvB (LuMPIS construct) (from UniProt Q97SR6 1-332) (natural protein)
[1]
  LIR (luminescence intensity ratio against MBP alone): 4
[2]
  LIR (luminescence intensity ratio against MBP alone): 5
[3]
  LIR (luminescence intensity ratio against MBP alone): 10
[4]
  LIR (luminescence intensity ratio against MBP alone): 11
[5]
  LIR (luminescence intensity ratio against MBP alone): 3
[6]
  LIR (luminescence intensity ratio against MBP alone): 12

## SP_0687, ABC transporter, ATP-binding protein (LuMPIS construct) (from UniProt A0A0H2UP48 1-213) (natural protein)
[7]
  LIR (luminescence intensity ratio against MBP alone): 4

## SP_1606, glycosyl transferase, family 2 (LuMPIS construct) (from UniProt A0A0H2UQY5 1-320) (natural protein)
[8]
  LIR (luminescence intensity ratio against MBP alone): 3
[9]
  LIR (luminescence intensity ratio against MBP alone): 50

## SP_2024, PTS system, IIA component (LuMPIS construct) (from UniProt A0A0H2US90 1-108) (natural protein)
[10]
  LIR (luminescence intensity ratio against MBP alone): 5

B1: SP_1672, recombination protein RecR (LuMPIS construct) (natural protein)
chain: MLYPTPIAKLIDSYSKLPGIGIKTATRLAFYTIGMSADDVNEFAKNLLSAKRELTYCSICGRLTDDDPCSICTDPTRDQTTILVLEDSRDVAAMENIQEYHGLYHVLHGLISPMNGISPDDINLKSLMTRLMDSEVSEVIVATNATADGEATSMYLSRLLKPAGIKVTRLARGLAVGADIEYADEVTLLRAIENRTEL
[11]
  LIR (luminescence intensity ratio against MBP alone): 6

B2: SP_1208, uridine kinase (LuMPIS construct) (natural protein, S. pneumoniae TIGR4, UniProt P67413 1-212, looked up)
chain: MQNRPIIIGVTGGSGGGKTSVSRAILSHFPDEKISMIEHDSYYKDQSHLTFEERVKTNYDHPFAFDTDLMIEQIKELLAGRPVDIPTYDYTEHTRSSKTYRQEPQDVFIVEGILVLEDKRLRDLMDIKIFVDTDDDVRIIRRIKRDMEERGRSLDSVINQYLGVVKPMYHQFIESTKRYADIVIPEGVSNTVAIDLLTTKIAKILEEARNSK
notes: SP_1208 uridine kinase, S. pneumoniae TIGR4; ORF in a Gateway LuMPIS vector; source: HEK cells, raw protein extract
[12]
  LIR (luminescence intensity ratio against MBP alone): 4

B3: SP_1088, DNA repair protein RadC (LuMPIS construct) (natural protein)
chain: MYSISFQEDSLLPRERLAKEGVEALSNQELLAILLRTGTRQASVFEIAQKVLNNLSSLTDLKKMTLQELQSLSGIGRVKAIELQAMIELGHRIHKHETLEMESILSSQKLAKKMQQELGDKKQEHLVALYLNTQNQIIHQQTIFIGSVTRSIAEPREILHYAIKHMATSLILVHNHPSGAVAPSQNDDHVTKLVKEACELMGIVLLDHLIVSHSNYFSYREKTDLI
[13]
  LIR (luminescence intensity ratio against MBP alone): 3
